Test results reported in article PMC3075490.

Molecular target: T1, [4Fe-4S]-NsrR-His6 (anaerobically purified) (Bacillus subtilis (JH642 background), UniProt O07573 1-146)
T1 sequence: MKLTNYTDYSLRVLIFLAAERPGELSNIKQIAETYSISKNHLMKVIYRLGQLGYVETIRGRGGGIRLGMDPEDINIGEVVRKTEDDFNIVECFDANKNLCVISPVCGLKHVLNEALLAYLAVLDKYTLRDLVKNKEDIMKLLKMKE
Experiment: EMSA

## GCATAACATGTATCTTAAATATTCCTTTCG (ssDNA) [nasD coding strand 30-mer oMN09-489]
  binding result: no binding
